Measurements from article PMC9952396.
Values joined by “and” are separate entries in the source; they are usually repeats but may differ in a detail not shown here. Equal values may be shown once. Read-outs that look alike come from different tables or passages of the source.

What was measured:
[1] = target: T1, Cys30 (UniProt position 49, FFSFFCPHCYQ); assay: UV-vis; settings: room temperature, 200 mM KCl plus buffer salts, 10 mM dipotassium phosphate, 10 mM monopotassium phosphate, 10 mM sodium citrate, 10 mM Tris, 1 mM EDTA, Reduced DsbA (DTT-reduced, reagent removed), with oxidised DsbA (Cu(II)-phenanthroline-oxidised) as reference
[2] = target: T1, Cys30; settings: not stated (literature values for wild-type EcDsbA); cited from earlier work

Substance | pKa [1] | pKa [2]
EcDsbA E24A (Escherichia coli (K-12); E24A) | 3.7 ± 0.1 | 
EcDsbA E24A/E37A/K58A (Escherichia coli (K-12); E24A;E37A;K58A) | 3.5 ± 0.1 | 
EcDsbA E24A/K58A (Escherichia coli (K-12); E24A;K58A) | 3.5 ± 0.1 | 
EcDsbA E37A (Escherichia coli (K-12); E37A) | 3.3 ± 0.1 | 
EcDsbA K58A (Escherichia coli (K-12); K58A) | 3.4 ± 0.1 | 
Thiol:disulfide interchange protein DsbA (EcDsbA), wild type (Escherichia coli (K-12)) | 3.3 ± 0.1 | 3.55 ± 0.02 and ~3.4
